Test results: PMC12440807

Molecular target: RNA polymerase II;RECQL5 (Sus scrofa domesticus?;Homo sapiens, UniProt A0A8D1DPV6;A0A0B8RVL1;P19387;O15514;I3LSI7;P61218;P62487;P52434;P36954;P52435;P6 …, |)
Test: cryo-EM; phosphorylated Pol II; 2.8 A; Mg, Zn in model
Settings: protein: native;recombinant; tags: none;His6-MBP, TEV-cleaved; copies: 1;1;1;1;1;1;1;1;1;1;1;1;1

Chain of RNA polymerase II;RECQL5 (O94762 whole entry, one chain of several): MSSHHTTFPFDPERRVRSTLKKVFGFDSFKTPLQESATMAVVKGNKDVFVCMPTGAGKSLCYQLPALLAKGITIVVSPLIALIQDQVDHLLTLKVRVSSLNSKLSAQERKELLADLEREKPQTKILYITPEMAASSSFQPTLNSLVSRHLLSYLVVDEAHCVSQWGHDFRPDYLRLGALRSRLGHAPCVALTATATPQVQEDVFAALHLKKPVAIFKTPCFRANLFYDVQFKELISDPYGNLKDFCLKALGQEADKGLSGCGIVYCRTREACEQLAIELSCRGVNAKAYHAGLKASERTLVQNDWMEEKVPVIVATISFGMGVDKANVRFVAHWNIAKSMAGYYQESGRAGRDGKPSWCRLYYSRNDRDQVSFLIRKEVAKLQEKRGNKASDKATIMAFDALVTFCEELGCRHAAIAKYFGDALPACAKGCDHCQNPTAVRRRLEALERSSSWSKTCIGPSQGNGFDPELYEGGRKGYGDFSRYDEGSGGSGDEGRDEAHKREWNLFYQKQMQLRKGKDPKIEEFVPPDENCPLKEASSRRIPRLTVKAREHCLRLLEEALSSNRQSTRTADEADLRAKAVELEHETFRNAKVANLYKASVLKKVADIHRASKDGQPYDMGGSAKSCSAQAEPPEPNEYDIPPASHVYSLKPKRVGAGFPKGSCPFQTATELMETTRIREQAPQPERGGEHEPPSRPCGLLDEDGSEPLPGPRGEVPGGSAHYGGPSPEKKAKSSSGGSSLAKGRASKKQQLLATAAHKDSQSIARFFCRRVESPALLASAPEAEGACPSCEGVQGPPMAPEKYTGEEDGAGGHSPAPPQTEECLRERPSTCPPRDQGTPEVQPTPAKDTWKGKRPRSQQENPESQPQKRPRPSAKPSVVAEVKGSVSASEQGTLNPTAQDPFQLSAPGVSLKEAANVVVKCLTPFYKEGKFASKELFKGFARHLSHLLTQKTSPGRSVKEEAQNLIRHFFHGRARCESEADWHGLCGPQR

B1: EC DNA-RNA scaffold (mixed)
DNA 1: GCTCCCAGCTCCCTGCTGGCTCCGAGTGGGTTCTGCCGCTCTCAATGG
DNA 2: CCATTGAGAGCGGCCCTTGTGTTCAGGAGCCAGCAGGGAGCTGGGAGC
RNA: GAGAGGGAACCCACU
  binding result: binds
